Results on two molecules are retold here after US20200231681A1.

The target of experiment [1] is c-Met receptor on human tumor cells (MKN45, NCI-H820, HCC827) (human) (UniProt P08581). Briefly: flow cytometry on MKN45 cells, 100 nM antibody overnight at 37° C., antibody left on the surface, anti-human kappa LC-FITC. A general note: Flow cytometry measures light scatter and fluorescence of single cells or particles in a stream.
For experiment [2] the target is unchanged. Briefly: flow cytometry on MKN45 cells, (MFI 37° C. - IgG)/(MFI 4° C. - IgG) x 100.
Experiment [3] has the same target. Briefly: flow cytometry on MKN45 cells, 100 nM antibody, 4° C. 1 hour (not internalized), anti-human kappa LC-FITC.
Experiment [4] addresses human FGF R3 (IIIc) Fc chimera (R&D systems, 766-FR) (human) (UniProt P22607). The experiment is described as follows: indirect ELISA, hu8C4 at 0.048 nM. On the technique in general: In an ELISA, binding on a coated surface is turned into a signal by an enzyme label.
Experiment [5] has the same target. Briefly: indirect ELISA, hu8C4 at 0.002 nM.
Experiment [6] has the same target. Briefly: indirect ELISA, hu8C4 at 30.000 nM.
Experiment [7] shares this target. The experiment is described as follows: indirect ELISA, hu8C4 at 0.010 nM.

Where “and” joins values, the source holds several entries; their conditions need not be identical. Identical values can stand only once.

c-Met receptor on human tumor cells (MKN45, NCI-H820, HCC827) (human), sequence (P08581 25-1390): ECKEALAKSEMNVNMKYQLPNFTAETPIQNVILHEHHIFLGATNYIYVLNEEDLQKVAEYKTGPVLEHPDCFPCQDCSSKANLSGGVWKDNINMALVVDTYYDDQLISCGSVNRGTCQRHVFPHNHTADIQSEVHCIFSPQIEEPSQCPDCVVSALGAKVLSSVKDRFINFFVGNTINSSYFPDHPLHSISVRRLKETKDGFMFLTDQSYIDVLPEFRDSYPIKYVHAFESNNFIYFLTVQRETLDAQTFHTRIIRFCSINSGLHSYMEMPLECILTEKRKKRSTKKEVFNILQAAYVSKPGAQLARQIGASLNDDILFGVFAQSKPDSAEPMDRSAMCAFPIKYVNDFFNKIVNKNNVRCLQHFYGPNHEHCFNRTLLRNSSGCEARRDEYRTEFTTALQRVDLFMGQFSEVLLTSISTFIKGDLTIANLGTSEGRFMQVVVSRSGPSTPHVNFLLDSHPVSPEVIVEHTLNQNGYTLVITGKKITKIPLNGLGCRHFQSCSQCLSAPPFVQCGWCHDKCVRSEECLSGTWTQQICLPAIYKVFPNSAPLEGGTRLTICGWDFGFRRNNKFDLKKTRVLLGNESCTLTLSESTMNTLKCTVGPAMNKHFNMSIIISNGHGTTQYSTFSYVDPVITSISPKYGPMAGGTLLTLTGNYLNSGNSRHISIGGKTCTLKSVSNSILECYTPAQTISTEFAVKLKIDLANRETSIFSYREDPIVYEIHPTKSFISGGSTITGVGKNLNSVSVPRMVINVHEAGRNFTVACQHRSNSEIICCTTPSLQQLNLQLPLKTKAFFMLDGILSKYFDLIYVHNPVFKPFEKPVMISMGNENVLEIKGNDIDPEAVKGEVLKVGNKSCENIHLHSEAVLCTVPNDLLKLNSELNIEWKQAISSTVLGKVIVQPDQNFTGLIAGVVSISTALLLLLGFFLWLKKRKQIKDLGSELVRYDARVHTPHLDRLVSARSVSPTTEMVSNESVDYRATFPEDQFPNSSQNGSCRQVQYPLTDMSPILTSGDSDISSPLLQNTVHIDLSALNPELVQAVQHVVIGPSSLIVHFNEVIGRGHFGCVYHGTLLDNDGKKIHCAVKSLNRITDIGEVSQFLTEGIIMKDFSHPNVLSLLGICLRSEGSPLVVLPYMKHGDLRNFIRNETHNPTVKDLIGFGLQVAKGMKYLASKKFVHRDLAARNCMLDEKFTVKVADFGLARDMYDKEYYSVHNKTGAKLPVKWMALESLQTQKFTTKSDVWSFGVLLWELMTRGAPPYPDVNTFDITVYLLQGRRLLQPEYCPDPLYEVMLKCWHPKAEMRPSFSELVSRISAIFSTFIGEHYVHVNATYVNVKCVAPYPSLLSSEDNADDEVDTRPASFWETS

B1: OA-5D5 (Genentech) (antibody, INN chains, looked up, V domains shown)
VH: EVQLVESGGGLVQPGGSLRLSCAASGYTFTSYWLHWVRQAPGKGLEWVGMIDPSNSDTRFNPNFKDRFTISADTSKNTAYLQMNSLRAEDTAVYYCATYRSYVTPLDYWGQGTLVTVSS
VL: DIQMTQSPSSLSASVGDRVTITCKSSQSLLYTSSQKNYLAWYQQKPGKAPKLLIYWASTRESGVPSRFSGSGSGTDFTLTISSLQPEDFATYYCQQYYAYPWTFGQGTKVEIK
modifications: one-armed
Molecule B1 had an FITC MFI [37° C. exp.] (FITC geo-mean (MFI)) in experiment [1] of 1720. Moreover, the Surface bound Ab(%) in experiment [2] came out at 98%. This molecule came in with an FITC MFI [4° C. control] (FITC geo-mean (MFI)) in experiment [3] of 1760.

B2: hu8C4 (IgG1 humanized antibody having a hinge region of SEQ ID NO: 38 in hu8C4-1) (antibody, V domains shown)
VH: EVQLVESGGGLVQPGGSLRLSCAASGYTFSDYYINWVRQAPGKGLEWIGEIFPGSGNTHFSARFKGRATLSADKSKNTAYLQMNSLRAEDTAVYYCAGGDYGFLYWGQGTLVTVSS
VL: DIQMTQSPSSLSASVGDRVTITCGASENIYGALNWYQQKPGKAPKLLIYGATNLADGVPSRFSGSGSGRDFTFTISSLQPEDIATYYCQNVLSSPYTFGQGTKVEIK
For B2, the A450 nm-A570 nm (A450 nm-A570 nm) is 0 in experiment [4]; 0 in experiment [5]; 0.01 and 0.02 in experiment [6]; 0 in experiment [7].
